System: peptide library, one residue held at a place counted from the Y acceptor
Assay: relative phosphorylation of the sub-library (ratio to the mean residue at this position); higher = residue favoured
Outline: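 Within 384-well plates, purified recombinant kinases phosphorylated biotinylated Tyr-centred peptide library mixtures over 90 min using 50 μM ATP spiked with γ-32P-ATP; each mixture fixed one residue at one position from −5 to +5. Streptavidin membrane capture, rinsing, phosphorimaging and ImageQuant gave the intensities. These were normalized per position to the sum of the 18 randomized residues (16 for the Ser/Thr-free library) and multiplied by that number.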

AXL, construct: aa473-end, human, sequence (P30530 473-894, looked up): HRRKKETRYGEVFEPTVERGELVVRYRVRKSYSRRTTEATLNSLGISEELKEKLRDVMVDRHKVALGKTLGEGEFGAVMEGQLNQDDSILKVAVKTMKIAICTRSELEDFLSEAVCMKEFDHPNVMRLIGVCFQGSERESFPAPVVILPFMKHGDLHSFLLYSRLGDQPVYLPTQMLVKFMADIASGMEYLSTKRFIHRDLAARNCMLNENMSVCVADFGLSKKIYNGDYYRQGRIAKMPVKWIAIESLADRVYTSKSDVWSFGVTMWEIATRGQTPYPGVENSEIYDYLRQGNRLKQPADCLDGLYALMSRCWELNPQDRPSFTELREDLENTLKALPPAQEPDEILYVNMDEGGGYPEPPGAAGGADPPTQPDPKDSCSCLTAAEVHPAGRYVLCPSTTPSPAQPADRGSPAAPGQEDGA
BMPR2, construct: aa172-end, human, sequence (Q13873 172-1038, looked up): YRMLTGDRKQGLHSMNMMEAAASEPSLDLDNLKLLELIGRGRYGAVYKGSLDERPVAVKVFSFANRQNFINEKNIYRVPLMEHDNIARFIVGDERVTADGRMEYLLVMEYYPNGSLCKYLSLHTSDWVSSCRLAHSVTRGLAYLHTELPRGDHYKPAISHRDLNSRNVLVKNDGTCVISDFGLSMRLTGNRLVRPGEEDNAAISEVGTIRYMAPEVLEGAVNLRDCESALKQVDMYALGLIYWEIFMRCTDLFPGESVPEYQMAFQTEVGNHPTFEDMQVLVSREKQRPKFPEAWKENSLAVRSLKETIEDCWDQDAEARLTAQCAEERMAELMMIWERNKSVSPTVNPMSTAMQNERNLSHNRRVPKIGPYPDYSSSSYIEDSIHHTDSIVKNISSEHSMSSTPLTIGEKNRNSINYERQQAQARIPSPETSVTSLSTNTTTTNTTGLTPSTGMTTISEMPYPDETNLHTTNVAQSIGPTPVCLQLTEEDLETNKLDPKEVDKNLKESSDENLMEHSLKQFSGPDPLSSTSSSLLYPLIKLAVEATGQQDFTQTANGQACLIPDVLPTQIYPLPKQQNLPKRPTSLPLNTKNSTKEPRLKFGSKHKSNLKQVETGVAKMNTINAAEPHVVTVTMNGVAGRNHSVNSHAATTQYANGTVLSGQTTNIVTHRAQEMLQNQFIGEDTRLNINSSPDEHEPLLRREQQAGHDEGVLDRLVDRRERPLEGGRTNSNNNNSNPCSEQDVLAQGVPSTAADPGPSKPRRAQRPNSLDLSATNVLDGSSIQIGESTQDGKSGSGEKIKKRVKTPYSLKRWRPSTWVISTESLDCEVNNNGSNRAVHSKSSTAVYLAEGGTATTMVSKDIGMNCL
BMX, construct: Full length, human, sequence (P51813 whole entry, looked up): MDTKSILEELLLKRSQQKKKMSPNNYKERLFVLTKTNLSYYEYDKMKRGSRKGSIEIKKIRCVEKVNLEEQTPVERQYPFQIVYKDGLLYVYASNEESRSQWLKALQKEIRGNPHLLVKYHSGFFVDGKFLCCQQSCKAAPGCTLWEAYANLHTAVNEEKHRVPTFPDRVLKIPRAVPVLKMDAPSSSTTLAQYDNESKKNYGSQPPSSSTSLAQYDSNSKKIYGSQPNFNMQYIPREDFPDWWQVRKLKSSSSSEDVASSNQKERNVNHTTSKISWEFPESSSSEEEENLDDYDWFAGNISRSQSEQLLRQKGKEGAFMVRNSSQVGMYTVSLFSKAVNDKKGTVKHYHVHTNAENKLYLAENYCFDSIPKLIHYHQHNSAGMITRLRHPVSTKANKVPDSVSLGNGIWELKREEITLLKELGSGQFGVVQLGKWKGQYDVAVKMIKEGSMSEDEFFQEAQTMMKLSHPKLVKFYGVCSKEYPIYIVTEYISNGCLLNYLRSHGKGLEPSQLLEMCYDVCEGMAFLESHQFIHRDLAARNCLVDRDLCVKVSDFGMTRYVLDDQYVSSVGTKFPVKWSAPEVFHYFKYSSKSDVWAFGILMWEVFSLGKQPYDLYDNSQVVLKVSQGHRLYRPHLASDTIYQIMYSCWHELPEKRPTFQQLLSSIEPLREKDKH

AXL, construct: aa473-end, human (from UniProt P30530)
relative phosphorylation
Conditions	at +1	at +2	at +3	at +4	at +5	at -1	at -2	at -3	at -4	at -5
A fixed	1.58	0.759	0.52	0.973	0.953	0.707	0.976	0.87	1.16	0.962
D fixed	0.68	0.48	0.401	0.874	1.06	0.354	0.754	0.897	0.884	0.822
E fixed	1.19	0.946	0.327	1.07	1.01	0.34	0.896	1.15	1.1	0.813
F fixed	1.12	1.43	1.61	1.03	0.877	1.51	0.6	0.911	0.948	0.965
G fixed	0.671	0.33	0.527	1.41	1.81	0.306	1.39	1.25	1.36	1.36
H fixed	1.1	0.976	1.05	1.33	0.794	1.77	1.1	1	0.905	1.08
I fixed	1.42	1.31	2.32	0.763	0.446	2.51	0.913	0.722	0.915	0.969
K fixed	0.356	0.723	0.289	0.849	0.911	0.718	1.21	1.09	1.15	1.11
L fixed	0.971	1.33	2.33	0.84	0.548	2.03	0.762	0.792	0.986	0.913
M fixed	1.09	1.13	1.55	1.02	0.69	1.05	0.639	0.84	0.891	0.977
N fixed	0.352	0.811	0.456	0.806	1.25	1.1	1.16	1.29	0.905	1.02
P fixed	0.183	0.751	0.892	1.29	2.23	0.518	1.1	1.25	1.09	1.18
Q fixed	1.02	0.801	0.818	1.18	1.14	0.595	1.23	0.965	1.08	1.11
R fixed	0.457	0.845	0.425	0.928	0.64	0.549	1.14	1.12	1.19	1.26
S fixed	1.2	0.804	0.633	0.894	1.18	0.649	1.44	1.23	0.873	0.843
T fixed	1.29	0.941	0.79	0.849	1.13	0.862	1.11	1.04	0.826	0.841
V fixed	1.72	1.2	1.45	0.744	0.6	1.27	1.05	0.785	0.862	0.827
W fixed	1.6	2.42	1.61	1.16	0.723	1.15	0.539	0.791	0.88	0.963
pThr fixed	1.2	0.933	0.308	0.609	0.743	0.426	0.736	0.827	0.7	0.706
pTyr fixed	1.74	2.15	0.402	0.659	0.818	1.08	0.692	1.06	0.883	0.7

BMPR2, construct: aa172-end, human (from UniProt Q13873)
relative phosphorylation
Conditions	at +1	at +2	at +3	at +4	at +5	at -1	at -2	at -3	at -4	at -5
A fixed	0.886	0.936	0.914	0.977	0.907	0.88	0.948	0.948	0.967	0.964
D fixed	0.835	1.34	1.18	1.05	1.04	2.25	1.25	1.33	1.31	1.29
E fixed	0.785	1.44	1.13	1.07	1.04	1.44	1.08	1.27	1.16	1.1
F fixed	0.959	0.852	0.953	0.96	0.947	0.755	1.09	0.989	1.13	1.06
G fixed	0.927	0.923	1.03	1.04	1.07	1.46	1.03	1.02	0.965	0.987
H fixed	1.03	0.986	0.995	1.08	1.06	0.796	1.09	1.1	1.14	1.05
I fixed	1.02	0.969	1.02	1	0.961	0.767	0.754	0.855	0.861	0.928
K fixed	1.11	0.898	0.966	1.04	1.06	0.708	1.06	0.872	0.875	0.942
L fixed	1.09	0.864	0.827	0.834	0.842	0.832	1.05	0.852	0.896	0.863
M fixed	1.06	0.913	0.906	0.917	0.874	0.841	0.97	0.881	0.901	0.892
N fixed	0.897	1.08	1	1	0.99	1.08	1	1.1	0.933	1.05
P fixed	1.23	0.981	1.05	1.07	1.15	0.724	0.825	0.86	0.905	0.928
Q fixed	0.917	0.994	0.979	0.957	0.972	0.92	1.01	1.01	0.987	1.03
R fixed	1.2	0.99	1.14	1.1	1.23	0.92	1.05	1.04	0.92	0.975
V fixed	1.26	1.03	1.04	0.972	0.979	0.781	0.732	0.918	0.911	0.906
W fixed	0.808	0.789	0.875	0.919	0.88	0.843	1.06	0.963	1.14	1.03
pThr fixed	2.07	1.7	1.39	1.4	1.12	3.29	1.35	1.22	1.22	1.27
pTyr fixed	1.48	2.01	1.17	1.27	1.05	2.54	1.64	2.3	2	1.47

BMX, construct: Full length, human (from UniProt P51813)
relative phosphorylation
Conditions	at +1	at +2	at +3	at +4	at +5	at -1	at -2	at -3	at -4	at -5
A fixed	1.73	1.01	0.847	0.846	0.939	0.521	1.05	0.992	1.04	1.05
D fixed	0.82	0.761	0.324	0.746	0.903	0.726	1.43	1.48	1.31	1.11
E fixed	1.85	1.27	0.292	0.959	0.958	0.812	1.5	1.56	1.43	1.03
F fixed	0.504	1.02	1.53	0.876	1.11	1.13	0.558	1.12	0.855	0.993
G fixed	0.807	0.605	0.799	1.11	1.08	0.293	1.18	0.958	1.33	1.13
H fixed	0.451	0.611	2.04	1.1	1.01	0.643	0.912	0.864	0.866	0.921
I fixed	1.61	1.08	1.25	0.722	0.764	3.28	0.744	0.636	0.845	0.855
K fixed	0.251	0.768	0.639	0.881	0.914	0.281	0.792	0.672	0.898	1.03
L fixed	0.714	1	1.1	0.849	0.762	3.33	0.799	0.704	0.884	1.02
M fixed	1.28	0.979	1.15	1.06	1.04	1.24	0.71	0.805	0.958	0.938
N fixed	0.44	0.919	0.558	0.784	0.99	0.567	1.27	1.39	1.03	1.15
P fixed	0.166	0.873	0.569	1.12	1.3	0.5	1.38	1.13	1.27	1.19
Q fixed	1.26	1.02	1.09	1.19	0.953	0.652	1.3	1.08	1.26	1.1
R fixed	0.332	0.919	1.47	1.27	1.2	0.298	0.81	0.823	0.987	1.06
S fixed	1.38	1.27	0.866	0.935	1.1	0.475	1.18	1.08	0.797	0.923
T fixed	1.39	1.35	0.704	0.936	1.02	1.1	1.03	0.909	0.724	0.787
V fixed	1.74	1.42	1.24	0.898	0.788	1.64	0.866	0.792	0.738	0.867
W fixed	1.28	1.11	1.53	1.73	1.16	0.501	0.493	0.987	0.777	0.868
pThr fixed	2.3	2.57	0.296	0.734	0.603	2.21	1.19	1.25	1.09	0.986
pTyr fixed	1.29	2.49	0.504	0.852	0.858	9.03	1.27	1.46	1.22	1.05
